Source: patent publication US20050164361A1 (published 2005)
Where no end group is shown, it is not given here.

Experiments:
[1] = molecular target: the molecule itself; assay: fibril formation kinetics (self-assembly), FIG. 5A
[2] = molecular target: the molecule itself; assay: fibril formation kinetics (self-assembly), FIG. 5B
[3] = molecular target: the molecule itself; assay: self-assembly into a β-sheet bilayer, FIG. 8

B1: Aβ(10-21) (amino acid residues 10-21 of SEQ ID NO: 1) (peptide)
peptide: YEVHHQKLVFFA
modifications: not fully specified
notes: Segment of β-amyloid that assembles with itself into fibrils; Many copies stand in the assembly
- binding result [1]: binds

B2: Aβ(10-21)H13Q (SEQ ID NO: 3) (peptide)
peptide: YEVQHQKLVFFA
notes: Aβ(10-21) with a modified amino acid residue 13 (H13Q)
- binding result [2]: binds

B3: Aβ(16-22) (amino acid residues 16-22 of SEQ ID NO: 1), CH3CO-KLVFFAE-NH2 (peptide)
peptide: Ac-KLVFFAE-NH2
modifications: also: self-assembles into β-sheets, nanotubes
notes: Assembles with itself into β-sheets, a rectangular bilayer, helical ribbons and nanotubes
- binding result [3]: binds
